According to the supplement of paper PMC10126150:
± gives the standard deviation of the averaged measurements.

Tested on: ATP
Experiment: switch fluorescence ratio, 500 uM ATP over buffer (Cy3 cluster intensity, sum of 5 cycles each) (fold (ratio)); higher = stronger signal-on switching upon ATP binding; sequences stand for … in TCGTCGGCAGCGTCAGATGTGTATAAGAGACAGTTTTTTTTTTTTTTTTTTTTTTTTT…TC
Conditions: aptamer strand: ATP DNA aptamer (quencher-CACCTGGGGGAGTATTGCGGAGGAAGG + anchor), 100 nM annealed; ATP concentration: 500 uM
In short: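 For every switch-domain sequence, the fluorescence ratio is the mean of per-cluster values, each being summed target-cycle Cy3 intensity over summed buffer-cycle Cy3 intensity. Clusters outside 100-1000 RFU were excluded. On a modified Illumina MiSeq flow-cell, the Cy3-labelled switching-strand clusters were annealed to 100 nM quencher-labelled ATP aptamer, imaged in selection buffer and then after 15 min with 500 uM ATP at 22 °C. Five such cycles were run, with NaOH stripping and re-annealing between them.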
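Note: ATP exposure 15 min at 22 °C before imaging.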

| Sequence | switch fluorescence ratio |
| --- | --- |
| ATTAAGAGGC | 1.02 ± 0.06 |
| ATTAAGCAAG | 1.04 ± 0.015 |
| ATTAAGCAT | 1.04 ± 0.053 |
| ATTAAGGGGT | 1.07 ± 0.12 |
| ATTAAGTCGT | 0.982 ± 0.033 |
| ATTAATATCA | 0.9629 ± 0.0017 |
| ATTAATATGG | 1.02 ± 0.015 |
| ATTAATGTGT | 0.9987 ± 0.0011 |
| ATTACGACTG | 1.06 ± 0.031 |
| ATTACGGGGT | 1.01 ± 0.044 |
| ATTACGTATT | 1.103 ± 0.0095 |
| ATTACGTGTA | 1.012 ± 0.0039 |
| ATTACGTTGG | 0.998 ± 0.024 |
| ATTACGTTTT | 0.989 ± 0.039 |
| ATTACTAGTG | 1.03 ± 0.014 |
| ATTACTTACA | 1.308 ± 0.0037 |
| ATTAGAAAAA | 0.904 ± 0.019 |
| ATTAGAACGG | 1.01 ± 0.022 |
| ATTAGACCCT | 1.038 ± 0.005 |
| ATTAGAGATT | 1.01 ± 0.028 |
| ATTAGAGCGT | 1.013 ± 0.0045 |
| ATTAGCGCCC | 1.01 ± 0.032 |
| ATTAGCTGGT | 0.952 ± 0.017 |
| ATTAGCTTAG | 0.987 ± 0.017 |
| ATTAGGGGAT | 1.01 ± 0.018 |
| ATTAGGGGTT | 1 ± 0.037 |

| Sequence | switch fluorescence ratio |
| --- | --- |
| ATTAGGGTTG | 0.9823 ± 0.0019 |
| ATTAGGTAAT | 0.999 ± 0.011 |
| ATTAGGTACG | 1.02 ± 0.038 |
| ATTAGGTGGG | 1.05 ± 0.068 |
| ATTAGTAGCA | 1 ± 0.014 |
| ATTAGTCCGA | 0.9917 ± 0.0089 |
| ATTATACTTC | 1.04 ± 0.013 |
| ATTATATTCT | 1 ± 0.038 |
| ATTATCTTGG | 1.05 ± 0.064 |
| ATTATGAATT | 1.01 ± 0.021 |
| ATTATGGAGG | 0.968 ± 0.016 |
| ATTATGGCGC | 0.967 ± 0.0049 |
| ATTATGGCTG | 1.07 ± 0.011 |
| ATTATGGTAT | 1.02 ± 0.04 |
| ATTATGGTGG | 1.16 ± 0.26 |
| ATTATGTTTG | 1.002 ± 0.0097 |
| ATTATTAATG | 0.9917 ± 0.008 |
| ATTATTAGAA | 0.9912 ± 0.0034 |
| ATTATTATTG | 0.981 ± 0.041 |
| ATTATTCAGT | 0.997 ± 0.018 |
| ATTATTCTTT | 1.01 ± 0.061 |
| ATTATTGGTG | 1.018 ± 0.0046 |
| ATTATTTATC | 0.985 ± 0.088 |
| ATTCAAGTT | 0.999 ± 0.034 |
| ATTCACACGC | 1.06 ± 0.017 |
| ATTCACTTAG | 1.09 ± 0.011 |

| Sequence | switch fluorescence ratio |
| --- | --- |
| ATTCAGACCT | 1.39 ± 0.019 |
| ATTCAGATCT | 1 ± 0.034 |
| ATTCAGGGCT | 1.01 ± 0.013 |
| ATTCAGGGGG | 1.07 ± 0.028 |
| ATTCAGTAAA | 1 ± 0.022 |
| ATTCAGTTGC | 1.08 ± 0.072 |
| ATTCATTCAG | 0.9865 ± 0.0047 |
| ATTCATTTTG | 1.019 ± 0.0048 |
| ATTCCAAGGA | 0.9853 ± 0.0019 |
| ATTCCAGACG | 1.01 ± 0.024 |
| ATTCCGGGGA | 1.23 ± 0.29 |
| ATTCCGGTGG | 0.989 ± 0.052 |
| ATTCCTCTGG | 1.2 ± 0.018 |
| ATTCGAAGGT | 1.004 ± 0.0044 |
| ATTCGAGAAG | 0.997 ± 0.018 |
| ATTCGAGTGT | 0.984 ± 0.018 |
| ATTCGCTTCT | 1.02 ± 0.013 |
| ATTCGGCGGA | 1.03 ± 0.068 |
| ATTCGGGGG | 0.927 ± 0.064 |
| ATTCGGGTTT | 1.05 ± 0.066 |
| ATTCGTAGTG | 1.004 ± 0.0016 |
| ATTCGTCATA | 1.04 ± 0.075 |
| ATTCGTTACT | 1.03 ± 0.051 |
| ATTCGTTTCT | 0.97 ± 0.013 |
| ATTCGTTTTC | 1.02 ± 0.024 |
